The values below come from patent US20080138847A1, “Bcl-2 family member and BH-3 only proteins for use in development of peptidomimetics” (priority 2004, published 2008).

Substitutions are numbered along the chain they refer to. In names and notes the source's numbering stands. Where no end group is shown, it is not given here.

Assay [1] addresses T1, CED-9 (residues 68-251) (Caenorhabditis elegans, UniProt P41958 68-251).
T1 construct: range 68-251; Form used in isothermal titration calorimetry
T1 sequence (looked up): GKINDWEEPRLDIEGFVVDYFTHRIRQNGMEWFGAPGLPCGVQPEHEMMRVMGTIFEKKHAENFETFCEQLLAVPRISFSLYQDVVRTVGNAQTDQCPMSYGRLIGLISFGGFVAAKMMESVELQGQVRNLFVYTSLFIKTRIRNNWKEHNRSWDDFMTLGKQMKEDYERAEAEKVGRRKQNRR
The assay can be described thus: isothermal titration calorimetry (ITC). The source says: (§1) The EGL-1/CED-9 complex adopts a compact, globular fold, resembling a single folding unit. CED-9 comprises 7 α helices, with the central hydrophobic helix α5 surrounded by 6 helices and several surface loops. A 27-amino acid fragment of the EGL-1 protein (residues 47-73) forms a single amphipathic α helix, packing against CED-9 helices α2, α3, α4, α5, and α7 over an extended hydrophobic surface cleft. Residues N- or C-terminal to the EGL-1 helix were disordered in the crystals and thus are not involved in binding to CED-9.
(Isothermal titration calorimetry measures the heat released or taken up as one component is titrated into another.)

Assay [2] deals with T2, CED-9 protein (residues 1-251) (Caenorhabditis elegans, UniProt P41958 1-251).
T2 construct: range 1-251
T2 sequence (looked up): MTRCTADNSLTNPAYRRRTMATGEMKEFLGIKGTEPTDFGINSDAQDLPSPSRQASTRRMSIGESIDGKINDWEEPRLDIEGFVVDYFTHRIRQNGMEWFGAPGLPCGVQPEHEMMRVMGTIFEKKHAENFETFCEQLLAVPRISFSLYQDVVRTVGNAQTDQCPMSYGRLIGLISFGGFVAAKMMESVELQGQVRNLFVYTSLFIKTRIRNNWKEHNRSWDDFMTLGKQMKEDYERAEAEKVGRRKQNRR
Description: EGL-1 missense mutants tested for interaction with CED-9 (Example 1).

For assay [3], the target named is T3, CED-9 (construct not stated) (Caenorhabditis elegans, UniProt P41958 1-251, limits assumed).
T3 construct: Also stands for the worm's own CED-9 in the in vivo rows
T3 sequence (looked up): T2 sequence (looked up)
Description: GST-mediated pull-down. The source says:
This example describes the biochemical and functional analysis of EGL-1/CED-9 interactions. To corroborate the structural analysis, mutations on the interface residues of EGL-1 were examined for their potential to weaken or disrupt its binding to CED-9. Various mutant EGL-1 fragments were purified as fusion proteins with glutathione S-transferase (GST) and their interactions with CED-9 were investigated using a GST-mediated pull-down assay. […] Strikingly, substitution of Gly55 by a negatively charged glutamate residue was not sufficient to abolish interaction with CED-9.

The target of assay [4] is T2, CED-9 protein (residues 1-251). Description: binding test of GST-EGL-1 fragments with CED-9 (1-251). The method, then:
This example describes the characterization of EGL-1/CED-9 interactions. To determine the mechanism of CED-9 recognition by EGL-1, the EGL-1/CED-9 interaction was characterized. Various fragments of the GST-EGL-1 protein were evaluated for their abilities to interact with the CED-9 protein (residues 1-251). […] In contrast, the C-terminal half (residues 45-87 or 45-91) formed a stable complex with CED-9.

Assay [5] concerns the target T4, CED-9 (residues 68-251) (Caenorhabditis elegans, UniProt P41958).
T4 construct: made in house
T4 sequence (P41958 68-251): T1 sequence (looked up)
The assay can be described thus: isothermal titration calorimetry (ITC) of EGL-1 fragments binding to CED-9. Conditions: binding to CED-9 (residues 68-251), read-out: dissociation constant. Further details: species or system C. elegans.
Text: as §1

For assay [6], the system named is ced-1 (e1735); egl-1 (n1084 n3082) animals. The assay can be described thus: in vivo cell killing: cell corpses in four-fold transgenic embryos after heat-shock expression of EGL-1 fragments. The arrangement: species or system C. elegans. Conditions: anterior head region of four-fold transgenic embryos; heat-shock promoter expression. The method, then:
In this example, the ability of EGL-1 mutants to disrupt the CED-4/CED-9 complex was tested. […] To examine this scenario, constructs were injected into ced-1 (e1735); egl-1 (n1084 n3082) animals that direct expression of various EGL-1 fragments under the control of the C. elegans heat-shock promoters. Cell corpses were scored in the anterior head region of four-fold transgenic embryos after the heat-shock treatment.

Consider “full-length EGL-1 protein (from UniProt O61667 16-106)”, for which the Kd in the assay with CED-9 (residues 68-251) [1] was determined as 6.7 nM.

B1: GST-EGL-1 fragment double mutant (mut2, G55E/F65A) (other, UniProt O61667 60-102, looked up)
chain: SEISSIGYEIESKLAAMCDDADAQMMSYSAHASDRSLFHRLLD
modifications: also: GST fusion in pull-down, placement and linker not given here
notes: GST fusion in the pull-down; also called EGL-1 (G55E/F65A); EGL-1 double mutant; not shown: glutathione S-transferase (GST) fusion partner
Turning to B1, the binding result in assay [2] and in assay [3] was “no binding” each time.

B2: GST-EGL-1 fragment quadruple mutant (mut4, G55E/L58A/F65A/M69A) (other, UniProt O61667 60-102, looked up)
chain: B1 chain with L14A, M25A
modifications: also: GST fusion in pull-down, placement and linker not given here
notes: GST fusion in the pull-down; not shown: glutathione S-transferase (GST) fusion partner
For the molecule B2, the binding result in assay [3] is “no binding”.

B3: GST-EGL-1 N-terminal half (residues 1-45) (other, UniProt O61667 16-60, looked up)
chain: {GST}-MSNVFDVQSSVFYNEKNMFYSSSQDFSSCEDSSQFADDSGFFDDS
notes: GST placed at the N-terminus by the printed name 'GST-EGL-1'; also called N-terminal half (residues 1-45) of EGL-1; not shown: glutathione S-transferase (GST) fusion partner
As for B3, the binding result in assay [4] is listed as “no binding”.

B4: full-length EGL-1 protein: full-length pro-apoptotic BH-3 Only protein EGL-1 of C. elegans (protein, UniProt O61667 1-106, looked up)
chain: MLMLTFASTSSDLLPMSNVFDVQSSVFYNEKNMFYSSSQDFSSCEDSSQFADDSGFFDDSEISSIGYEIGSKLAAMCDDFDAQMMSYSAHASDRSLFHRLLDFFAF
modifications: full-length
notes: full-length pro-apoptotic BH-3 Only protein EGL-1 of C. elegans
For the molecule B4, the Kd with CED-9 (residues 68-251) [5] stood at 6.7 nM. In addition, the “cell killing (cell corpses induced)” value in assay [6] is “induced robust cell killing”.

SSIGYEIGSKLAAMCDDFDAQMMSY (peptide, UniProt O61667 63-87, looked up, range 63-87; Used in ITC) [EGL-1 fragment (residues 48-72)] displayed a Kd in the assay with CED-9 (residues 68-251) [1] of 6.4 nM.
